Fewer inactive variants are shown than the library holds.
B1: TPR 5TU (parent)
chain: GGAUCUUCUCGAUCUAACAAAAAAGACAAAUCUGCCACAAAGCUUGAGAGCAUCUUCGGAUGCAGAGGCGGCAGCCUUCGGUGGCGCGAUAGCGCCAACGUUCUCAACUAUGACACGCAAAACGCGUGCUCCGUUGAAUGGAGUUUAUCAUG

Variants of: B1
Experiment: polymerase ribozyme fitness, log enrichment relative to wild type (log ratio); higher = more active; in vitro selection for triplet polymerase activity
Method in brief: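 One round of in vitro selection, in triplicate, was applied to PCR-built, transcribed mutant libraries of each subunit of a heterodimeric triplet polymerase ribozyme. The steps were annealing with a biotinylated primer, partner subunit and triplets, incubation frozen at −7 °C, gel excision of extended constructs, streptavidin-bead capture and RT-PCR. Fitness is the logarithm, base 2, of genotype enrichment over wild-type enrichment from inverse-variance-weighted replicate averages of Illumina-sequenced inputs and outputs, keeping genotypes with ≥10 input reads and ≥1 read per output.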

Row | Variant | polymerase ribozyme fitness (log ratio)
1 | U53A C75U G88C | ≤ -4.2
2 | U53C U77C | ≤ -4.2
3 | A52G C85U G86U C118G U144C C149G | ≤ -4.2
4 | A52U U53A | -1.23
5 | U53A G58U C95A U144A C149A | ≤ -4.2
6 | U53A G84C C99A U111A | ≤ -4.2
7 | A52U G84U G86A A91U A121U | ≤ -4.2
8 | U53A C96A | -2.37
9 | U53A C96U | -1.85
10 | A52G U135G U139C A147C | ≤ -4.2
11 | U53A G94A | -1.61
12 | A52U G83A | -2.83
13 | A52G G100U A106U | ≤ -4.2
14 | A52U G83A C95U | -3.78
15 | A52U U55A | -1.7
16 | U53C G83C C116G | -3.05
17 | A52G C75A G84U A110U | ≤ -4.2
18 | A52U G81A C87A A97U U104G G126C U134G G136C | ≤ -4.2
19 | A52U U53G U56A G65C C75U C85U U104G U127C U139A | ≤ -4.2
20 | U53A A98G U101G | -1.25
21 | A52U U104A G133C G141C U146G | ≤ -4.2

Row | Variant | polymerase ribozyme fitness (log ratio)
22 | U53A C95U | -0.368
23 | U53A A106U | -1.9
24 | A52U G86U C105U | -1.83
25 | U53A C132U U146G | -3.87
26 | A52U A122G | -3.43
27 | A52G U55A G92U | -0.803
28 | U53A G83C G94U A97G U101G U102G C116A G140U | ≤ -4.2
29 | A52G U53C G58A A142C | -3.35
30 | U53C G94C A98C U148G | ≤ -4.2
31 | U53A G83C | -2.61
32 | A52G G81A G83A A98U | -1.22
33 | U53A G100U | -3.41
34 | U53A U55A G83U C123A G128U A147U | ≤ -4.2
35 | U53A U146G | -2.38
36 | A52G G81A | -0.481
37 | U53A C79U A89G U134G | ≤ -4.2
38 | U53A C69U A89G G94U C96U A115U U148G U151G | ≤ -4.2
39 | A52G C79U G92A C116G | ≤ -4.2
40 | U53A A115U | -2.87
41 | U53A A115G | -0.769
42 | U53A G59C C76G C85U A89C A97C A107U G117U G133A U139G | ≤ -4.2

Row | Variant | polymerase ribozyme fitness (log ratio)
43 | U53A U55A C79U A98U | ≤ -4.2
44 | A52G G58U C87U | -2
45 | U53C A73G G84A U109G G140C | ≤ -4.2
46 | A52U C54U G92A A98G A120G U139C U144C U151A | ≤ -4.2
47 | U53A G58C A73U C95A | ≤ -4.2
48 | U53G A113U | -3.16
49 | U53A A91G G124A U139G U146A | -3.5
50 | A52G C96U A122U | -0.85
51 | U53A G58C A150U | 0.575
52 | U53A C99U C116U | -1.7
53 | U53G C118U | -1.68
54 | A52G C93G C96U U104C A150G | ≤ -4.2
55 | A52U G67U C85A C125G | ≤ -4.2
56 | U53G G71C G86A G143U | ≤ -4.2
57 | A52U G74A C87A A119U U148G | ≤ -4.2
58 | U53A A89U | -0.481
59 | U53A A147G | -3.69
60 | A52U U56A C79G C105A | ≤ -4.2
61 | U53A G81U G88A A115G A147U | ≤ -4.2
62 | U53A C87U | -0.931
63 | A52G U56G A60C C85G G143U | ≤ -4.2

Row | Variant | polymerase ribozyme fitness (log ratio)
64 | U53A U56C G141U | -0.733
65 | A52G C87U G141A U148A | ≤ -4.2
66 | U53G G59A | -1.37
67 | A52U C116A | 0.243
68 | A52G G88A C118A C123U G141C | ≤ -4.2
69 | A52G U56C C93A | -2.44
70 | A52G U82A | -0.467
71 | U53A A66C | -4.19
72 | U53A A66U | ≤ -4.2
73 | A52U C54U | -1.2
74 | A52U C54G | -2.21
75 | A52G G84U U144G | -1.56
76 | A52G C125U | -0.198
77 | U53G C96G U144C | -3.23
78 | U53A A119U | -2.1
79 | A52G G62A C85U | -1.4
80 | U53A U61A U109G | -2.25
81 | A52G U56G C85A C131U A137G | -3.95
82 | A52G C57A G83U A91G C95A | -4.15
83 | A52G U55A A91C A97U G112A A150U | ≤ -4.2
84 | A52G G84A G136A | -0.512

Reference: the RNAGym collection of RNA variant scans (doi:10.1073/pnas.2313332121)
